Reference: IntAct's records for PubMed 19855379

B1: Protein phosphatase 2C 56 (Arabidopsis thaliana (Mouse-ear cress)), P49597 (parent)
chain: MEEVSPAIAGPFRPFSETQMDFTGIRLGKGYCNNQYSNQDSENGDLMVSLPETSSCSVSGSHGSESRKVLISRINSPNLNMKESAAADIVVVDISAGDEINGSDITSEKKMISRTESRSLFEFKSVPLYGFTSICGRRPEMEDAVSTIPRFLQSSSGSMLDGRFDPQSAAHFFGVYDGHGGSQVANYCRERMHLALAEEIAKEKPMLCDGDTWLEKWKKALFNSFLRVDSEIESVAPETVGSTSVVAVVFPSHIFVANCGDSRAVLCRGKTALPLSVDHKPDREDEAARIEAAGGKVIQWNGARVFGVLAMSRSIGDRYLKPSIIPDPEVTAVKRVKEDDCLILASDGVWDVMTDEEACEMARKRILLWHKKNAVAGDASLLADERRKEGKDPAAMSAAEYLSKLAIQRGSKDNISVVVVDLKPRRKLKSKPLN
B2: Abscisic acid receptor PYL1 (Arabidopsis thaliana (Mouse-ear cress)), Q8VZS8 (parent)
chain: MANSESSSSPVNEEENSQRISTLHHQTMPSDLTQDEFTQLSQSIAEFHTYQLGNGRCSSLLAQRIHAPPETVWSVVRRFDRPQIYKHFIKSCNVSEDFEMRVGCTRDVNVISGLPANTSRERLDLLDDDRRVTGFSITGGEHRLRNYKSVTTVHRFEKEEEEERIWTVVLESYVVDVPEGNSEEDTRLFADTVIRLNLQKLASITEAMNRNNNNNNSSQVR

Variants of: B1
Details: with pyl1_arath PYL1, Q8VZS8

| effect of a mutation on the interaction | Variant |
| --- | --- |
| decreasing interaction | Y319A |
| disrupting interaction | I298A |
| disrupting interaction | W300A |
| decreasing interaction | E142A |
| disrupting interaction | R304A |

Variants of: B2
Details: with ABI1, P49597

| effect of a mutation on the interaction | Variant |
| --- | --- |
| decreasing interaction | F189A |
| disrupting interaction | L144A |
| disrupting interaction | H142A |
| decreasing interaction | R143A |
